Assay results: article PMC7005872

Molecular target: TBC1D9 (UniProt Q6ZT07)
Experiment: co-IP of GFP-TBK1 and FLAG-TBC1D9
Details: reference: GFP-TBK1 wild type; sites S172

Q: With “TBK1 (from UniProt Q9UHD2) GFP-TBK1 S172A” as the substance, how does the “binding against the reference” value read?
A: The value was “lost”.
